T1: HA-ADAM22 (UniProt Q9P0K1 223-906)
T1 construct: ADAM22 (A Disintegrin And Metalloprotease domain 22) receptor, cDNA; In the HEK293T lysates it is present in both immature (110 kDa) and mature (90 kDa) forms; also called HA-tagged ADAM22; HA-fused ADAM22; source: COS7, co-transfected, on cells (immunofluorescence); HEK293T, co-transfected, in lysate (co-IP)
T1 sequence (looked up): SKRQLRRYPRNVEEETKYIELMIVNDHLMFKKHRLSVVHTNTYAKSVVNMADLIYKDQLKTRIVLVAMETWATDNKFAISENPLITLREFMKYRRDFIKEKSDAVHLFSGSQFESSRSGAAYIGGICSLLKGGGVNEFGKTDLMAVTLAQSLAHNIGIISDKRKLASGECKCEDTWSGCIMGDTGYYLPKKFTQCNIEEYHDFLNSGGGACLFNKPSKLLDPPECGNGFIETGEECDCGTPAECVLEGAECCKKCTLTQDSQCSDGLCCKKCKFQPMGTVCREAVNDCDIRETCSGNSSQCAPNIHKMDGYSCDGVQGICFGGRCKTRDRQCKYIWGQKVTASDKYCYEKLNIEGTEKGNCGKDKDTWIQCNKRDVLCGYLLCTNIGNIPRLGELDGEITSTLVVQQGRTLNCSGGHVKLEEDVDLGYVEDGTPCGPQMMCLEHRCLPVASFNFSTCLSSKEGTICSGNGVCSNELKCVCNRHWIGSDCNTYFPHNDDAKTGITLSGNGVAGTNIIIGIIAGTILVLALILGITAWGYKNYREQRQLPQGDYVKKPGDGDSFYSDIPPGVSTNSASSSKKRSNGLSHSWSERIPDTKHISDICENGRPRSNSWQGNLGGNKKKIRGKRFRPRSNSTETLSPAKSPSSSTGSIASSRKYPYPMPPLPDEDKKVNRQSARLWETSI

T2: HA-ADAM23 (UniProt O75077 287-832)
T2 construct: ADAM23 (A Disintegrin And Metalloprotease domain 23) receptor, cDNA; Expression of HA-ADAM23 in HEK293T was lower than that of HA-ADAM22; also called HA-tagged ADAM23; HA-fused ADAM23; source: COS7, co-transfected, on cells (immunofluorescence); HEK293T, co-transfected, in lysate (co-IP)
T2 sequence (looked up): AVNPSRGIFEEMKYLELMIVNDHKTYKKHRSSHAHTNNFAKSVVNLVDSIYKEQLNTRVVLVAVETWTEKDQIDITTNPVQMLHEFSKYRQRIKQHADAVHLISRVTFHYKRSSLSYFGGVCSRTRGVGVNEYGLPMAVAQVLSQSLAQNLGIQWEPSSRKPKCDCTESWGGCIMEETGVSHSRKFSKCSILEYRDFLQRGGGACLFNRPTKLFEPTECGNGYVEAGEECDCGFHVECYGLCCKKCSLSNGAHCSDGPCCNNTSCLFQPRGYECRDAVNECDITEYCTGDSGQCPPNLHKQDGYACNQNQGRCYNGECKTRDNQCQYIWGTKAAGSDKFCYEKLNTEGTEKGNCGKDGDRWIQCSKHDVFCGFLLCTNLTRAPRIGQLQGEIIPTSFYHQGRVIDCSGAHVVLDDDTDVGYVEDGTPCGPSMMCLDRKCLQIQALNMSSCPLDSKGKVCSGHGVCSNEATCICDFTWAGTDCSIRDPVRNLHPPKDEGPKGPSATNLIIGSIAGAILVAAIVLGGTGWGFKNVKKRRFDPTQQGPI


Experiments:
[1] = molecular target: T1, HA-ADAM22; test: immunostaining of cells or tissue; COS7 cells co-transfected with LGI1-Flag (wild type or mutant) and HA-ADAM22 or HA-ADAM23; 36 h after transfection fixed, LGI1 stained with anti-Flag before permeabilisation, ADAM with anti-HA after it; percentage of co-immunostained cells with both signals on the cell surface counted; three independent experiments; settings: partners not purified
[2] = molecular target: T2, HA-ADAM23; test: as above; settings: partners not purified

| Binder | percent of cells with membrane-bound LGI1 [1] | percent of cells with membrane-bound LGI1 [2] |
| --- | --- | --- |
| wild type LGI1-Flag (leucine-rich, glioma-inactivated 1) (ligand, human, UniProt O95970 35-557, looked up, the protein has a signal peptide and is secreted; also called LGI1 wild type; WT; source: COS7, co-transfected with HA-ADAM22 or HA-ADAM23 (immunofluorescence); HEK293T, co-transfected, in lysate (co-IP)) KKPAKPKCPAVCTCTKDNALCENARSIPRTVPPDVISLSFVRSGFTEISEGSFLFTPSLQLLLFTSNSFDVISDDAFIGLPHLEYLFIENNNIKSISRHTFRGLKSLIHLSLANNNLQTLPKDIFKGLDSLTNVDLRGNSFNCDCKLKWLVEWLGHTNATVEDIYCEGPPEYKKRKINSLSSKDFDCIITEFAKSQDLPYQSLSIDTFSYLNDEYVVIAQPFTGKCIFLEWDHVEKTFRNYDNITGTSTVVCKPIVIETQLYVIVAQLFGGSHIYKRDSFANKFIKIQDIEILKIRKPNDIETFKIENNWYFVVADSSKAGFTTIYKWNGNGFYSHQSLHAWYRDTDVEYLEIVRTPQTLRTPHLILSSSSQRPVIYQWNKATQLFTNQTDIPNMEDVYAVKHFSVKGDVYICLTRFIGDSKVMKWGGSSFQDIQRMPSRGSMVFQPLQINNYQYAILGSDYSFTQVYNWDAEKAKFVKFQELNVQAPRSFTHVSINKRNFLFASSFKGNTQIYKHVIVDLSA | 76% | 88% |
| LGI1-R407C (Flag-tagged) (ligand, human, UniProt O95970 35-557, looked up, LGI1 with the ADLTE-causing substitution R407C (c.1219C>T); secreted protein; also called c.1219C>T; source: COS7, co-transfected with HA-ADAM22 or HA-ADAM23 (immunofluorescence); HEK293T, co-transfected, in lysate (co-IP)) KKPAKPKCPAVCTCTKDNALCENARSIPRTVPPDVISLSFVRSGFTEISEGSFLFTPSLQLLLFTSNSFDVISDDAFIGLPHLEYLFIENNNIKSISRHTFRGLKSLIHLSLANNNLQTLPKDIFKGLDSLTNVDLRGNSFNCDCKLKWLVEWLGHTNATVEDIYCEGPPEYKKRKINSLSSKDFDCIITEFAKSQDLPYQSLSIDTFSYLNDEYVVIAQPFTGKCIFLEWDHVEKTFRNYDNITGTSTVVCKPIVIETQLYVIVAQLFGGSHIYKRDSFANKFIKIQDIEILKIRKPNDIETFKIENNWYFVVADSSKAGFTTIYKWNGNGFYSHQSLHAWYRDTDVEYLEIVRTPQTLRTPHLILSSSSQCPVIYQWNKATQLFTNQTDIPNMEDVYAVKHFSVKGDVYICLTRFIGDSKVMKWGGSSFQDIQRMPSRGSMVFQPLQINNYQYAILGSDYSFTQVYNWDAEKAKFVKFQELNVQAPRSFTHVSINKRNFLFASSFKGNTQIYKHVIVDLSA | 36% | 29% |

More lines, now with the values ahead:

| percent of cells with membrane-bound LGI1 [1] | percent of cells with membrane-bound LGI1 [2] | Binder |
| --- | --- | --- |
| 13% | 23% | LGI1-R474Q (Flag-tagged) (ligand, human, UniProt O95970 35-557, looked up, LGI1 with the ADLTE-causing substitution R474Q (c.1421G>A); secreted protein; also called c.1421G>A; source: COS7, co-transfected with HA-ADAM22 or HA-ADAM23 (immunofluorescence); HEK293T, co-transfected, in lysate (co-IP)) KKPAKPKCPAVCTCTKDNALCENARSIPRTVPPDVISLSFVRSGFTEISEGSFLFTPSLQLLLFTSNSFDVISDDAFIGLPHLEYLFIENNNIKSISRHTFRGLKSLIHLSLANNNLQTLPKDIFKGLDSLTNVDLRGNSFNCDCKLKWLVEWLGHTNATVEDIYCEGPPEYKKRKINSLSSKDFDCIITEFAKSQDLPYQSLSIDTFSYLNDEYVVIAQPFTGKCIFLEWDHVEKTFRNYDNITGTSTVVCKPIVIETQLYVIVAQLFGGSHIYKRDSFANKFIKIQDIEILKIRKPNDIETFKIENNWYFVVADSSKAGFTTIYKWNGNGFYSHQSLHAWYRDTDVEYLEIVRTPQTLRTPHLILSSSSQRPVIYQWNKATQLFTNQTDIPNMEDVYAVKHFSVKGDVYICLTRFIGDSKVMKWGGSSFQDIQRMPSQGSMVFQPLQINNYQYAILGSDYSFTQVYNWDAEKAKFVKFQELNVQAPRSFTHVSINKRNFLFASSFKGNTQIYKHVIVDLSA |
| 3% | 16% | LGI1-S473L (Flag-tagged) (ligand, human, UniProt O95970 35-557, looked up, LGI1 with the ADLTE-causing substitution S473L (c.1418C>T); secreted protein; also called c.1418C>T; source: COS7, co-transfected with HA-ADAM22 or HA-ADAM23 (immunofluorescence); HEK293T, co-transfected, in lysate (co-IP)) KKPAKPKCPAVCTCTKDNALCENARSIPRTVPPDVISLSFVRSGFTEISEGSFLFTPSLQLLLFTSNSFDVISDDAFIGLPHLEYLFIENNNIKSISRHTFRGLKSLIHLSLANNNLQTLPKDIFKGLDSLTNVDLRGNSFNCDCKLKWLVEWLGHTNATVEDIYCEGPPEYKKRKINSLSSKDFDCIITEFAKSQDLPYQSLSIDTFSYLNDEYVVIAQPFTGKCIFLEWDHVEKTFRNYDNITGTSTVVCKPIVIETQLYVIVAQLFGGSHIYKRDSFANKFIKIQDIEILKIRKPNDIETFKIENNWYFVVADSSKAGFTTIYKWNGNGFYSHQSLHAWYRDTDVEYLEIVRTPQTLRTPHLILSSSSQRPVIYQWNKATQLFTNQTDIPNMEDVYAVKHFSVKGDVYICLTRFIGDSKVMKWGGSSFQDIQRMPLRGSMVFQPLQINNYQYAILGSDYSFTQVYNWDAEKAKFVKFQELNVQAPRSFTHVSINKRNFLFASSFKGNTQIYKHVIVDLSA |
